Tested on: MS2 coat protein
Assay: apparent KD of MS2 coat protein; designed switch direction (-1 OFF switch, 1 ON switch): -1; higher = weaker reporter binding
In short: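 Designed RNA switches were transcribed on Illumina chips by stalled E. coli RNA polymerase and titrated with SNAP-549-labelled MS2 coat protein from 0.7 or 1.5 nM, doubling to 3 µM. Step length ran from 0.8–1.5 h at the lowest concentration to 10–20 min at the highest. The apparent KD is the median over clusters for each design, from curve-fitted normalised cluster fluorescence.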

[1] = Eterna round: R95, input ligand: FMN 200 uM
[2] = Eterna round: R95, input ligand: microRNA oligo, concentration not stated
[3] = Eterna round: R95, input ligand: none
[4] = input ligand: microRNA oligo, concentration not stated

Sequence: CAGCUGAAAGUGAGGAUAUCGACUGCCUCGGCAGUCGAGAAGGCACAUGAGGAUCACCCAUGUCUCAACAGCUG [BmEx4/1-A5] (Eterna round: R97, puzzle: Brourd's mod of Exclusion 4)
- apparent KD of MS2 coat protein (input ligand: FMN 200 uM): 81.4 nM
- apparent KD of MS2 coat protein (input ligand: none): 23 nM

Sequence: CCCGCAGGUUUUUUGCUCGACAUGAGGAUCACCCAUGUUGCGUGGGUUGUGUGUGUGUGGUGCAUAUAUAUGGUCCU [-25.4, -48.9 kcal, A 14%] (Eterna round: R97, puzzle: Sensor, turn-off variant 1)
- apparent KD of MS2 coat protein (input ligand: FMN 200 uM): 300 nM
- apparent KD of MS2 coat protein (input ligand: none): 350 nM

Sequence: UAAUGCAAGCAAAGAUCUUACAUGAGGAUCACCCAUGUGCUCGUCUUAUAAAGUACUAUCACGAAAGUGAUAGUACU [Mat - Sensor v3 - turn-off var 1 - Eli Mod - D92] (puzzle: Sensor v3, turn-off variant 1)
- apparent KD of MS2 coat protein [1]: 31.5 nM
- apparent KD of MS2 coat protein [2]: 129 nM
- apparent KD of MS2 coat protein [3]: 25.2 nM

Sequence: CUCUAGAAAGGAUAUACAUGAGGAUCACCCAUGUCCACGCCAUAACCGAGUGCCAUCUGUAGAAGGUUCAGAGU [Eternabot (L1) Solution 96] (Eterna round: R97, puzzle: Exclusion 3)
- apparent KD of MS2 coat protein (input ligand: FMN 200 uM): 52.5 nM
- apparent KD of MS2 coat protein (input ligand: none): 29.2 nM

Sequence: GUAGAGUCAGGAUAUACAAAACCAUCGAAAGAUGGAUCCAUACAUGAGGAUCACCCAUGUAGAAGGGACUCUAC [Eli x2 4.17] (Eterna round: R97, puzzle: Exclusion 2)
- apparent KD of MS2 coat protein (input ligand: FMN 200 uM): 21 nM
- apparent KD of MS2 coat protein (input ligand: none): 17.1 nM

Sequence: CAAUAUUAUCGAGGAUAUCCUAUUGUAUUUCAGGGAGAAGGCGGACUCAACAUGAGGAUCACCCAUGUAAGACGGGUACUAGAU [Ex NG1 #19] (Eterna round: R96, puzzle: Exclusion NG 1)
- apparent KD of MS2 coat protein (input ligand: FMN 200 uM): 92.2 nM
- apparent KD of MS2 coat protein [4]: 69.8 nM
- apparent KD of MS2 coat protein (input ligand: none): 89.7 nM

Sequence: AAUAACAAGCCGAUCCUUCACAUGAGGAUCACCCAUGUGCUCGUCUUGUAAAGUACUAUCACGAAAGUGAUAGUACA (Eterna round: R97, puzzle: Sensor, turn-off variant 1)
- apparent KD of MS2 coat protein (input ligand: FMN 200 uM): 22.6 nM
- apparent KD of MS2 coat protein (input ligand: none): 19.9 nM

Sequence: CUUCGUAUAGAGGAUAUAGGUUACCUCGGUAUCCUAGAAGGCUGUACAUGAGGAUCACCCAUGUACUUCAGAUC [Exclusion 6 - B - 13:b] (puzzle: Exclusion 6)
- apparent KD of MS2 coat protein [2]: 12.7 nM

Sequence: AUUUAGUCAGGAUAUACAUGAGGAUCACCCAUGUAAACUUUUAGUUUAAUUUGAAUGUGUAGAAGGGACAUUUA [Ex3 #46] (Eterna round: R97, puzzle: Exclusion 3)
- apparent KD of MS2 coat protein (input ligand: FMN 200 uM): 26 nM
- apparent KD of MS2 coat protein (input ligand: none): 28 nM

Sequence: AGUACUAACACGUGAGUGUUAGUACAAUAAGCUUGUGAAACAUGAGGAUCACCCAUGUCCUCAUAAGCUCGUCUUAU [salish99_TOv2_r3_061] (Eterna round: R96, puzzle: Sensor v3, turn-off variant 2)
- apparent KD of MS2 coat protein (input ligand: FMN 200 uM): 16.5 nM
- apparent KD of MS2 coat protein [4]: 496 nM
- apparent KD of MS2 coat protein (input ligand: none): 18.5 nM

Sequence: GUAUAACAUGUAGGAUAUGCGUGGCGAAGCUAUGCAGAAGGACAUGAGGAUCACCCAUGUAAUAGCGUCUGCGUACAGAUGCAA [Mat - Exclusion NG 1 - Mod of JL - D90] (Eterna round: R96, puzzle: Exclusion NG 1)
- apparent KD of MS2 coat protein (input ligand: FMN 200 uM): 134 nM
- apparent KD of MS2 coat protein [4]: 27.9 nM
- apparent KD of MS2 coat protein (input ligand: none): 40.8 nM

Sequence: UUUGUACAUGAGGAUCACCCAUGUCAGGAUAUGUCAUCGCCGUCUGCCAGACGGCGUCACAGAAGGGACAUGCA [EX1 C.16] (Eterna round: R97, puzzle: Exclusion 1)
- apparent KD of MS2 coat protein (input ligand: FMN 200 uM): 104 nM
- apparent KD of MS2 coat protein (input ligand: none): 34.1 nM

Sequence: GUCAGACGAGGAUAUAGAUUUGAUAACAUGAGGAUCACCCAUGUGAUCGAUAGAUCAGAUUUAGAAGGUGUCUGAC [E5/8-B3] (Eterna round: R97, puzzle: Exclusion 5)
- apparent KD of MS2 coat protein (input ligand: FMN 200 uM): 403 nM
- apparent KD of MS2 coat protein (input ligand: none): 331 nM

Sequence: AUGGUACAUGAGGAUCACCCAUGUUAGGAUAUCGCGUGUUCUAAAACUAAGAGACACACGAGAAGGGACGACAU (puzzle: Exclusion 1)
- apparent KD of MS2 coat protein [1]: 51.5 nM
- apparent KD of MS2 coat protein [2]: 67.8 nM
- apparent KD of MS2 coat protein [3]: 71.4 nM

Sequence: AAGCAUUGCCAAAGGUAGUGCAAAACAUGAGGAUCACCCAUGUAGGAUAUGGUAGGCAAAGCUUACCAGAAGGACAUGAUAAAU [Mat - Exclusion NG 3 - Mod of JL - D19] (Eterna round: R96, puzzle: Exclusion NG 3)
- apparent KD of MS2 coat protein (input ligand: FMN 200 uM): 218 nM
- apparent KD of MS2 coat protein [4]: 28 nM
- apparent KD of MS2 coat protein (input ligand: none): 42 nM

Sequence: UCUCGCGGGCAAGGAUAUCCUACGUUGUUCUGGCCCGUGUAUGUUACAUGAGGAUCACCCAUGUGGGAGAAGGUGCACCAGGGC [Design 39] (Eterna round: R96, puzzle: Exclusion NG 2)
- apparent KD of MS2 coat protein (input ligand: FMN 200 uM): 72.8 nM
- apparent KD of MS2 coat protein [4]: 43.8 nM
- apparent KD of MS2 coat protein (input ligand: none): 77.4 nM

Sequence: GUCCUACAUGAGGAUCACCCAUGUAAGGAUAUGCUAGCGGUCGGAAGACUGACUGCUAGCAGAAGGUACAUGAU [Mat - Mod of JL D79] (puzzle: Exclusion 1)
- apparent KD of MS2 coat protein [2]: 13.9 nM

Sequence: CAGUACUGAGGAUAUACAUGAGGAUCACCCAUGUGUCUUCUCCUAGGAAACUAGGUAUGUAGAAGGCAGUACUG [Omei Ex3 Mod of Eli 4.27 v1] (Eterna round: R97, puzzle: Exclusion 3)
- apparent KD of MS2 coat protein (input ligand: FMN 200 uM): 1370 nM
- apparent KD of MS2 coat protein (input ligand: none): 40 nM

Sequence: GUUUGACAUGAGGAUCACCCAUGUGAGGAUAUACGAUUAGCUGCUAGGUAGUUAGUAUGUAGAAGGUGCGUGUU [EX1 #69] (Eterna round: R97, puzzle: Exclusion 1)
- apparent KD of MS2 coat protein (input ligand: FMN 200 uM): 97.9 nM
- apparent KD of MS2 coat protein (input ligand: none): 117 nM

Sequence: GGGCUUAAAGGAUAUGCAAGGAGCCACAUGAGGAUCACCCAUGUACAACCUCAGUCCCUGGUAGAAGGUUACGCAA [whoooo] (Eterna round: R97, puzzle: Exclusion 5)
- apparent KD of MS2 coat protein (input ligand: FMN 200 uM): 35 nM
- apparent KD of MS2 coat protein (input ligand: none): 30.6 nM

Sequence: UUUUAACAUGAGGAUCACCCAUGUGAGGAUAUCGAAAUUUAUAUUUAUAUUAAUUAUUCGAGAAGGCACAUUUU [JMF 85] (puzzle: Exclusion 1)
- apparent KD of MS2 coat protein [2]: 131 nM

Sequence: CGAUGAGGAGUGAGGAUAUCGUGUUCGAAAGAACGUGAGAAGGCACAUGAGGAUCACCCAUGUGAUCCUCAUGG [Omei Ex4B A23] (Eterna round: R97, puzzle: Brourd's mod of Exclusion 4)
- apparent KD of MS2 coat protein (input ligand: FMN 200 uM): 1030 nM
- apparent KD of MS2 coat protein (input ligand: none): 164 nM

Sequence: UUAGUGUAAGGAUAUGCAAACCACGGAAAUAAAACGUGGAGGUAGAAGGUACAUGAGGAUCACCCAUGUUAAAC [Mod of Anonveat 25 - Jieux - Exclusion 4] (Eterna round: R97, puzzle: Exclusion 4)
- apparent KD of MS2 coat protein (input ligand: FMN 200 uM): 34 nM
- apparent KD of MS2 coat protein (input ligand: none): 20.2 nM

Sequence: UCAAUUUUGCGAGGAUAUCGACCAUUCCUCUUUACAUGAGGAUCACCCAUGUACUUAUUCUACAACGAGAAGGCGCUCAUAGUU [JR_ExcNG2_Sub064] (Eterna round: R96, puzzle: Exclusion NG 2)
- apparent KD of MS2 coat protein [4]: 30 nM

Sequence: ACAGCUAUAGGAUAUACAGCGAGGAAACUUAGUGGGAUCGGACAUGAGGAUCACCCAUGUAGAAGGAUAGACGG [Eternabot (L2) Solution 85] (Eterna round: R97, puzzle: Exclusion 2)
- apparent KD of MS2 coat protein (input ligand: FMN 200 uM): 149 nM
- apparent KD of MS2 coat protein (input ligand: none): 97.6 nM

Sequence: GUGUGCAGAGGAUAUACAGAGGAAAAGAAAAGAGAAGGGAGACAUGAGGAUCACCCAUGUAGAAGGCUGAGUGU [Excluse me!! 20 - Jieux - Exclusion 2] (puzzle: Exclusion 2)
- apparent KD of MS2 coat protein [2]: 63.4 nM

Sequence: UAUAUAUAGUAAGGAUAUGUAUAUAUUUUAUAAACAGAAGGUACUGACAUGAGGAUCACCCAUGUUUUAGUGUGGGCAUGUAGA [JMF's solution 7] (Eterna round: R96, puzzle: Exclusion NG 1)
- apparent KD of MS2 coat protein [4]: 57.5 nM

Sequence: GAUUGACAUGAGGAUCACCCAUGUGAGGAUAUCGGCUGGACCGUGUUGGCUUGCUUUUCGAGAAGGCGCAUAGG [Exclusion 1 V49] (puzzle: Exclusion 1)
- apparent KD of MS2 coat protein [1]: 55 nM
- apparent KD of MS2 coat protein [2]: 36.8 nM
- apparent KD of MS2 coat protein [3]: 35 nM

Sequence: GUCAGCUCGUGAGGAUAUGAACAUGAGGAUCACCCAUGUAAGAUCAAGCUGCUUCGGCAGCAAGUUCAGAAGGUACGAGCUGAU [ENG2/10-C2] (Eterna round: R96, puzzle: Exclusion NG 2)
- apparent KD of MS2 coat protein (input ligand: FMN 200 uM): 243 nM
- apparent KD of MS2 coat protein [4]: 93.3 nM
- apparent KD of MS2 coat protein (input ligand: none): 122 nM

Sequence: GUAGAGUCAGGAUAUACGAGAUCGAUAGAUCGGCGAUCCCUACAUGAGGAUCACCCAUGUAGAAGGGACUCUAC [Mat - Exclusion 2 - Eli Mod - D12] (Eterna round: R97, puzzle: Exclusion 2)
- apparent KD of MS2 coat protein (input ligand: FMN 200 uM): 37.6 nM
- apparent KD of MS2 coat protein (input ligand: none): 15.6 nM

Sequence: GCGGACAAGAUAUAAAUAUCAGAGACAUGAGGAUCACCCAUGUAGGAUAUCGAUUCGAAACGAAUCGAGAAGGGCAUAGUCCGC [JL denovo 1] (Eterna round: R96, puzzle: Exclusion NG 3)
- apparent KD of MS2 coat protein (input ligand: FMN 200 uM): 18.8 nM
- apparent KD of MS2 coat protein [4]: 13.8 nM
- apparent KD of MS2 coat protein (input ligand: none): 18.7 nM

Sequence: CUGCUCCGUGUAGGAUAUGCGCGCACCCACCGCGCAGAAGGACAUGAGGAUCACCCAUGUAUGUUAUUAUCACGUGAGGCGCGG [Design 36] (Eterna round: R96, puzzle: Exclusion NG 1)
- apparent KD of MS2 coat protein (input ligand: FMN 200 uM): 31.9 nM
- apparent KD of MS2 coat protein [4]: 17.7 nM
- apparent KD of MS2 coat protein (input ligand: none): 33.1 nM

Sequence: UAGAAUCGAGGAUAUACAUGAGGAUCACCCAUGUGUUGCCGCAUGAUGUGAUCGUCAGGUAGAAGGCGAUUAUA [Exclusion 3 - Mod of Jieux's Gilly Gone Silly 23 v.7] (puzzle: Exclusion 3)
- apparent KD of MS2 coat protein [2]: 35.4 nM

Sequence: CUCGGGAGUCAGGAUAUCGGCACUUAUCAAUCACGAGAAGGGACGACAUGAGGAUCACCCAUGUGGGAAAAGAA [Ersoar] (puzzle: Exclusion 6)
- apparent KD of MS2 coat protein [1]: 252 nM
- apparent KD of MS2 coat protein [2]: 89.4 nM
- apparent KD of MS2 coat protein [3]: 84.7 nM
